According to patent publication US20180094075A1 (Pfizer, published 2018):

Tests used:
[1] = molecular target: human PTK7 expressed on cells (cancer cell lines with endogenous PTK7; HEK293T-PTK7 over-expressing cells) (human) (UniProt Q13308); assay: flow cytometry, MDAMB436 cells, 10 µg/ml Ab
[2] = molecular target: human PTK7 expressed on cells (cancer cell lines with endogenous PTK7; HEK293T-PTK7 over-expressing cells) (human) (UniProt Q13308); assay: flow cytometry, H2110 cells, 10 µg/ml Ab
[3] = molecular target: human PTK7 expressed on cells (cancer cell lines with endogenous PTK7; HEK293T-PTK7 over-expressing cells) (human) (UniProt Q13308); assay: flow cytometry, H1048 cells, 10 µg/ml Ab
[4] = molecular target: human PTK7 expressed on cells (cancer cell lines with endogenous PTK7; HEK293T-PTK7 over-expressing cells) (human) (UniProt Q13308); assay: flow cytometry, H1975 cells, 10 µg/ml Ab
[5] = molecular target: human PTK7 expressed on cells (cancer cell lines with endogenous PTK7; HEK293T-PTK7 over-expressing cells) (human) (UniProt Q13308); assay: flow cytometry, MDAMB468 cells, 10 µg/ml Ab
[6] = molecular target: human PTK7 expressed on cells (cancer cell lines with endogenous PTK7; HEK293T-PTK7 over-expressing cells) (human) (UniProt Q13308); assay: flow cytometry, K562 cells, 10 µg/ml Ab
[7] = molecular target: human PTK7 expressed on cells (cancer cell lines with endogenous PTK7; HEK293T-PTK7 over-expressing cells) (human) (UniProt Q13308); assay: flow cytometry, DMS79 cells, 10 µg/ml Ab
[8] = molecular target: human PTK7 expressed on cells (cancer cell lines with endogenous PTK7; HEK293T-PTK7 over-expressing cells) (human) (UniProt Q13308); assay: flow cytometry, KG1 cells, 10 µg/ml Ab
[9] = molecular target: human PTK7 expressed on cells (cancer cell lines with endogenous PTK7; HEK293T-PTK7 over-expressing cells) (human) (UniProt Q13308); assay: flow cytometry, H661 cells, 10 µg/ml Ab
[10] = molecular target: human PTK7 expressed on cells (cancer cell lines with endogenous PTK7; HEK293T-PTK7 over-expressing cells) (human) (UniProt Q13308); assay: flow cytometry, Raji cells, 10 µg/ml Ab
[11] = molecular target: human PTK7 expressed on cells (cancer cell lines with endogenous PTK7; HEK293T-PTK7 over-expressing cells) (human) (UniProt Q13308); assay: flow cytometry, H522 cells, 10 µg/ml Ab
[12] = molecular target: human PTK7 expressed on cells (cancer cell lines with endogenous PTK7; HEK293T-PTK7 over-expressing cells) (human) (UniProt Q13308); assay: flow cytometry, HEL92.1 cells, 10 µg/ml Ab
[13] = molecular target: human PTK7 expressed on cells (cancer cell lines with endogenous PTK7; HEK293T-PTK7 over-expressing cells) (human) (UniProt Q13308); assay: flow cytometry, BT-549 cells, 10 µg/ml Ab
[14] = molecular target: human PTK7 expressed on cells (cancer cell lines with endogenous PTK7; HEK293T-PTK7 over-expressing cells) (human) (UniProt Q13308); assay: flow cytometry, HCC1806 cells, 10 µg/ml Ab
[15] = molecular target: human PTK7 expressed on cells (cancer cell lines with endogenous PTK7; HEK293T-PTK7 over-expressing cells) (human) (UniProt Q13308); assay: flow cytometry, ASPC1 cells (negligible PTK7 expression by immunoblot), 10 µg/ml Ab
[16] = molecular target: human PTK7 expressed on cells (cancer cell lines with endogenous PTK7; HEK293T-PTK7 over-expressing cells) (human) (UniProt Q13308); assay: flow cytometry, H520 cells, 10 µg/ml Ab
[17] = molecular target: human PTK7 expressed on cells (cancer cell lines with endogenous PTK7; HEK293T-PTK7 over-expressing cells) (human) (UniProt Q13308); assay: flow cytometry, BxPC3 cells, 10 µg/ml Ab
[18] = molecular target: human PTK7 expressed on cells (cancer cell lines with endogenous PTK7; HEK293T-PTK7 over-expressing cells) (human) (UniProt Q13308); assay: flow cytometry, DMS114 cells, 10 µg/ml Ab
[19] = molecular target: human PTK7 expressed on cells (cancer cell lines with endogenous PTK7; HEK293T-PTK7 over-expressing cells) (human) (UniProt Q13308); assay: flow cytometry, HCC38 cells, 10 µg/ml Ab
[20] = molecular target: human PTK7 expressed on cells (cancer cell lines with endogenous PTK7; HEK293T-PTK7 over-expressing cells) (human) (UniProt Q13308); assay: flow cytometry, RPMI8226 cells, 10 µg/ml Ab
[21] = molecular target: human PTK7 expressed on cells (cancer cell lines with endogenous PTK7; HEK293T-PTK7 over-expressing cells) (human) (UniProt Q13308); assay: flow cytometry, RL cells, 10 µg/ml Ab
[22] = molecular target: human PTK7 expressed on cells (cancer cell lines with endogenous PTK7; HEK293T-PTK7 over-expressing cells) (human) (UniProt Q13308); assay: flow cytometry, HL60 cells, 10 µg/ml Ab
[23] = molecular target: human PTK7 expressed on cells (cancer cell lines with endogenous PTK7; HEK293T-PTK7 over-expressing cells) (human) (UniProt Q13308); assay: flow cytometry, MV411 cells, 10 µg/ml Ab
[24] = molecular target: human PTK7 expressed on cells (cancer cell lines with endogenous PTK7; HEK293T-PTK7 over-expressing cells) (human) (UniProt Q13308); assay: flow cytometry, HCC827 cells, 10 µg/ml Ab
[25] = molecular target: human PTK7 expressed on cells (cancer cell lines with endogenous PTK7; HEK293T-PTK7 over-expressing cells) (human) (UniProt Q13308); assay: flow cytometry, HCT116 cells, 10 µg/ml Ab
[26] = molecular target: human PTK7 expressed on cells (cancer cell lines with endogenous PTK7; HEK293T-PTK7 over-expressing cells) (human) (UniProt Q13308); assay: flow cytometry, Hs578T cells, 10 µg/ml Ab
[27] = molecular target: human PTK7 expressed on cells (cancer cell lines with endogenous PTK7; HEK293T-PTK7 over-expressing cells) (human) (UniProt Q13308); assay: flow cytometry, U937 cells, 10 µg/ml Ab
[28] = molecular target: human PTK7 expressed on cells (cancer cell lines with endogenous PTK7; HEK293T-PTK7 over-expressing cells) (human) (UniProt Q13308); assay: flow cytometry, H69 cells, 10 µg/ml Ab

Chain of human PTK7 expressed on cells (cancer cell lines with endogenous PTK7; HEK293T-PTK7 over-expressing cells) (human) (Q13308 31-1070 L93P limits assumed): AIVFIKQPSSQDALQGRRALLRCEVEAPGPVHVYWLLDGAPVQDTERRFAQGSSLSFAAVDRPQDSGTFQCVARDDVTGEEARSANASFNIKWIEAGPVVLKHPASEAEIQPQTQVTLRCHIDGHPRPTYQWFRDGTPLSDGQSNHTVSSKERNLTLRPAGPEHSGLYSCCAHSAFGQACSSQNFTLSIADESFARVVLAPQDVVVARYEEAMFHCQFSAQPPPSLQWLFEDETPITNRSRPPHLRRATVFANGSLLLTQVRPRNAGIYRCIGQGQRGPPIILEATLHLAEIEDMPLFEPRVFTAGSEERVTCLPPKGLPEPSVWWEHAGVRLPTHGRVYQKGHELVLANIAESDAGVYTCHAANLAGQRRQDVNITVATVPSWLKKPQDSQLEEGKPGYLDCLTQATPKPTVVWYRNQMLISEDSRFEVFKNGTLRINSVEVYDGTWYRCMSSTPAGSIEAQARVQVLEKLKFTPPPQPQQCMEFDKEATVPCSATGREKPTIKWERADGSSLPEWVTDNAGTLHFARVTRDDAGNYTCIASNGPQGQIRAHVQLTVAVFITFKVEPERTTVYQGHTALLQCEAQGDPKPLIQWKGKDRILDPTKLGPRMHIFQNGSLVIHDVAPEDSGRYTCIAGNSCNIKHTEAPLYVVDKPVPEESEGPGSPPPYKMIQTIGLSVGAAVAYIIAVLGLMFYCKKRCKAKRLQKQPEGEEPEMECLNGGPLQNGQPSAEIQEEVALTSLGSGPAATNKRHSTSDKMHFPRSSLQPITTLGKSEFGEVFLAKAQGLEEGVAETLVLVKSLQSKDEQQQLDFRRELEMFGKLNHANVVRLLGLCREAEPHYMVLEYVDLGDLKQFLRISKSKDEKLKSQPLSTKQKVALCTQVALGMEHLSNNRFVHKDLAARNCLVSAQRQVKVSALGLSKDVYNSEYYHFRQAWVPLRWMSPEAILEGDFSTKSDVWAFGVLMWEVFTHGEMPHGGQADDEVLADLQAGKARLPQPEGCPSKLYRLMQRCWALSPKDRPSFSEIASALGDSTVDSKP

“Negative Control Ab (Table 8) (antibody)” gave a Mean Fluorescent Intensity [1] of 3.5, a Mean Fluorescent Intensity [2] of 4.9 and a Mean Fluorescent Intensity [3] of 4.4. For the same substance, the Mean Fluorescent Intensity [4] was 4.8, the Mean Fluorescent Intensity [5] was 12 and the Mean Fluorescent Intensity [6] was 54.7. It also gave a Mean Fluorescent Intensity [7] of 8.5, a Mean Fluorescent Intensity [8] of 5.2 and a Mean Fluorescent Intensity [9] of 3.8. The Mean Fluorescent Intensity [10] was 20.3, the Mean Fluorescent Intensity [11] was 3.8 and the Mean Fluorescent Intensity [12] was 7.7. The Mean Fluorescent Intensity [13] was 3.6, the Mean Fluorescent Intensity [14] was 4.6 and the Mean Fluorescent Intensity [15] was 2.6. It also gave a Mean Fluorescent Intensity [16] of 4.8, a Mean Fluorescent Intensity [17] of 4.6 and a Mean Fluorescent Intensity [18] of 9.9. For the same substance, the Mean Fluorescent Intensity [19] was 7.2, the Mean Fluorescent Intensity [20] was 8.3 and the Mean Fluorescent Intensity [21] was 29.8. The Mean Fluorescent Intensity [22] was 10.9, the Mean Fluorescent Intensity [23] was 7.7 and the Mean Fluorescent Intensity [24] was 5.8. For the same substance, the Mean Fluorescent Intensity [25] was 17.8, the Mean Fluorescent Intensity [26] was 2.7 and the Mean Fluorescent Intensity [27] was 5. The Mean Fluorescent Intensity [28] was 11.2.
